The record followed here is patent US20190309094A1.

The target of assay [1] is CD3 on Jurkat luciferase reporter cells (Homo sapiens (Human)) (UniProt P07766). The experiment in a line: flow cytometry on Jurkat_NFAT_Luc2P cells, PE-A; histogram shifted to about 10^4. (In general: A flow cytometer gives signals particle by particle.)
Assay [2] has as its target hCD3εγ chains (human) (UniProt P07766). The experiment in a line: ELISA on hCD3εγ chains, curve fit. For orientation: An ELISA detects its analyte on a solid surface through an enzyme-linked reagent.
The target is the same in assay [3]. Description: ELISA on hCD3εγ chains, curve fit (unit from the axis).
The target of assay [4] is CD3 on Jurkat luciferase reporter cells (Homo sapiens (Human)) (UniProt P07766). Description: flow cytometry on Jurkat_NFAT_Luc2P cells, control staining in all three panels.
Assay [5] shares this target. Description: flow cytometry on Jurkat_NFAT_Luc2P cells, FITC-A; histogram shifted to between 10^3 and 10^4.

UCHT1 (antibody), sequence (V domain): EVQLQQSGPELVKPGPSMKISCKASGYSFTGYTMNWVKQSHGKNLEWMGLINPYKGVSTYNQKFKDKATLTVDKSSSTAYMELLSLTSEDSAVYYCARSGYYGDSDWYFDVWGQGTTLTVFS
UCHT1 (antibody), sequence (VL): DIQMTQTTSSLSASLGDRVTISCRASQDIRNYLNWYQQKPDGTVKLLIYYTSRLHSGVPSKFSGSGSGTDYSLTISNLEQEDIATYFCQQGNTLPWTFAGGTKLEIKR

Turning to Commercial CD3e(HiT3a) (antibody), in assay [1], the Fold (fold over hIgG) amounted to 58.

As for UCHT1 (antibody), the Bmax in assay [2] was found to be 1.52 OD 450 nm. Also, the Kd in assay [3] amounted to 33.3 nM. Turning to hIgG (antibody), the Fold (fold (reference)) in assay [4] was 1.

For mOKT3 (antibody), in assay [5], the Fold (fold over hIgG) is 45.

As usually defined, the Kd is the constant that tells how readily two partners part at equilibrium. Read a low Kd as a tighter complex.
